According to PMC3983370:

Biological target: HCoV-OC43 nucleocapsid (N) protein WT (Human coronavirus OC43, UniProt P33469 1-448)
Assay: SPR

Chain of HCoV-OC43 nucleocapsid (N) protein WT (P33469 whole entry): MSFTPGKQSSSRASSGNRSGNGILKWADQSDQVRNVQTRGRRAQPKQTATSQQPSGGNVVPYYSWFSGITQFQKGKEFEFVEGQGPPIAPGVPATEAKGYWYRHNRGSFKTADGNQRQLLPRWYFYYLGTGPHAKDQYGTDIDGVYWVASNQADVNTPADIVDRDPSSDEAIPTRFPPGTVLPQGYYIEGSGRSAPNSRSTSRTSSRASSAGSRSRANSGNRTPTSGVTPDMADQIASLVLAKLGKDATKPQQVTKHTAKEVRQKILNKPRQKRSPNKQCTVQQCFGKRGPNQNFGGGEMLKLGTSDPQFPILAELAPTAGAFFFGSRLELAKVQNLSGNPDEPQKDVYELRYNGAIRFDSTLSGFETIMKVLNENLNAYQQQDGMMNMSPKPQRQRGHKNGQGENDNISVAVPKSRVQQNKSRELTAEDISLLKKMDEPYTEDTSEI

## UCUAAACUCUAAACUCUAAACUCUAAAC (ssRNA) [(UCUAAAC)4 repeated intergenic sequence]
  Kd: 11.7 ± 0.8 nM
